The source of these data is the supplement of paper PMC10567573.

± gives the standard deviation.

The nature of the data set: protein stability index of a GFP-peptide fusion (GPS, HEK-293T) (PSI 1-6); higher = more stable.
The mark [1] stands for this setting: treatment: DMSO, c terminus: a fixed tail appended.
The mark [2] stands for this setting: treatment: MLN4924 1 uM, 8 h, c terminus: a fixed tail appended.
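Note: 24-mer peptide tiles fused after GFP, lentivirally expressed, FACS-sorted into six equal bins by GFP/DsRed ratio, decoded by Illumina sequencing, PSI is the read-weighted mean bin number.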

FSHEILRDEESFFGERRIPRGRRI [ALKBH7]: the protein stability index reads like this: under setting [1], 3.34 ± 0.4; under setting [2], 3.84 ± 0.4.
Consider FSKSKELHPDRDPGNPSLHSRFVE [DNAJC4], for which the protein stability index reads like this: under setting [1], 3.91 ± 0.25; under setting [2], 4.22 ± 0.12.
The matching figures for FSLLEELKEGMLMKIKQDRASRTY [FSD1]: 2.63 ± 0.42 and 2.66 ± 0.14.
As for FSSSSQEAFAASAVGSGERRGGGP [ZBTB22], the protein stability index was determined as 3.66 ± 0.32 under setting [1] and 4.03 ± 0.34 under setting [2].
On the same counts, the results for FTFLRPLSVQQPTALALEPDAIRS [PCDHGC5] are 2.89 ± 0.3 and 3.03 ± 0.31.
Turning to FTGNFFYNYMMGIEFNPRIGKWFD [DHCR7], the protein stability index is, setting by setting: under setting [1], 2.59 ± 0.57; under setting [2], 2.21 ± 0.43.
The matching figures for FTLGDCDVIQALDLSVPLMDVGET [FKBP8]: 3.53 ± 0.093 and 3.54 ± 0.24.
On the same counts, the results for FVEYCDVNNDKSISVQELMGCLGV [SMOC2] are 2.39 ± 0.86 and 2.46 ± 0.38.
The matching figures for FVLAEDGRRCKKCTEGPIDLVFVI [MATN2]: 3.06 ± 0.44 and 2.5 ± 0.31.
Sequence FVRLFVDENLDRMVPISKQPKEKI [NOL4L] came in with a protein stability index under setting [1] of 2.41 ± 0.098 and a protein stability index under setting [2] of 2.65 ± 0.12.
The matching figures for FWNIKQMWDTKTLGLRQHHCRKCG [WDFY1]: 2.64 ± 0.25 and 2.86 ± 0.49.
On the same counts, the results for FWRDWEDYAHGFGNISGEFWLGNE [TNXB] are 2.78 ± 0.9 and 2.46 ± 0.51.
The matching figures for GAASLPSELIVHIFSFLPAPDRLR [FBXO33]: 2.6 ± 0.74 and 2.74 ± 0.39.
Take GAAVVRPPGHHAEQDAACGFCFFN [HDAC6]: the protein stability index was found to be 3.14 ± 0.36 under setting [1] and 3.26 ± 0.25 under setting [2].
For GAGAVSRTCTAPLDRLKVLMQVHA [SLC25A25], the protein stability index runs as follows: under setting [1], 2.32 ± 0.48; under setting [2], 2.41 ± 0.14.
The matching figures for GALEALELSPPLSPASHVDVDLTI [FOXJ1]: 3.17 ± 0.23 and 3.43 ± 0.36.
Take GASLRLAVEDGLQQFKQYSRHVTT [M1AP]: the protein stability index came out at 3.06 ± 0.15 under setting [1] and 3.19 ± 0.43 under setting [2].
On the same counts, the results for GASVRGLHPVQKVILNYPSPWDQE [TRAF3IP2] are 3.79 ± 0.33 and 4.1 ± 0.36.
On the same counts, the results for GATAASETLSGHGPLAQPLTLQVL [ADAMTS4] are 3.28 ± 0.29 and 3.19 ± 0.36.
Regarding GCDPLVKPVGRQACDLQPCPTEPP [ADAMTSL2], the protein stability index is 4.2 ± 0.049 under setting [1] and 4.54 ± 1.2 under setting [2].
On the same counts, the results for GCFLLILGQIVLLPAEARERSRGR [MATN2] are 1.97 ± 0.083 and 2.31 ± 0.48.
In the case of GCLENMPEADCIPKEQLSTSFQWV [PLK2], the protein stability index by setting is: under setting [1], 3.57 ± 0.2; under setting [2], 3.45 ± 0.36.
On the same counts, the results for GDIQELYDTTLALGHAAAFSDDCD [GLT8D2] are 5.24 ± 0.12 and 5.23 ± 0.14.
The matching figures for GDLIEITDAKKREALYAQDPSTGC [KMT5A]: 5 ± 0.24 and 4.86 ± 0.33.
On the same counts, the results for GEPGAAAPAMYDDESAIDFSAYID [CEBPD] are 5.28 ± 0.21 and 5.08 ± 0.29.
Turning to GEQPEPGEAAAGGAAEEARRLEQR [ACBD3], the protein stability index was 5.53 ± 0.34 under setting [1] and 5.44 ± 0.24 under setting [2].
For GEVVTESQKEQRSELDKSSAHSY [PRPH], the protein stability index (treatment: DMSO, c terminus: native) was 5.67 ± 0.24 and the protein stability index (treatment: MLN4924 1 uM, 8 h, c terminus: native) is 5.77 ± 0.1.
For the sequence GGAGSGFGGGYGGGLGGGYGGGLG [KRT13], the protein stability index by setting is: under setting [1], 3.35 ± 0.2; under setting [2], 2.85 ± 0.2.
For GGFGGGDGGLLSGNEKITMQNLND [KRT15], the protein stability index by setting is: under setting [1], 4.76 ± 0.3; under setting [2], 4.88 ± 0.27.
On the same counts, the results for GGKSGGIVISPFRLEELTNRLASL [CCDC6] are 2.58 ± 0.33 and 2.69 ± 0.22.
The matching figures for GHLEIVKYLVEHKADLEVSNRHGH [FEM1C]: 2.7 ± 0.45 and 2.94 ± 0.26.
On the same counts, the results for GIAQVKIQGQNKEMLAAACQMFLG [FLOT1] are 2.34 ± 0.12 and 2.69 ± 0.1.
On to GIEEVTYENCLQALADVEVKYIVE [NLN], for which the protein stability index amounted to 3.29 ± 0.37 under setting [1] and 3.34 ± 0.34 under setting [2].
For the sequence GILNRPPAPTATVPAPQPPVTKPL [ZNF207], the protein stability index under setting [1] was 4.53 ± 0.19 and the protein stability index under setting [2] turned out to be 4.57 ± 0.16.
As to GISGTTTKKGDLQWNAGEKKLTGG [SNAP91], the protein stability index under setting [1] was determined as 4.43 ± 0.077 and the protein stability index under setting [2] was determined as 4.86 ± 0.41.
In the case of GLAKEYIDPETKKHIPYREHKSLT [CSNK1G3], the protein stability index was 4.21 ± 0.22 under setting [1] and 4.2 ± 0.13 under setting [2].
Sequence GLLQGTSAETSGGLLICLPREQAA [SEPHS2] came in with a protein stability index under setting [1] of 3.07 ± 0.16 and a protein stability index under setting [2] of 3.29 ± 0.18.
On the same counts, the results for GLQHAPEPDAADGPYDPNSVRISF [SMAD6] are 4.24 ± 0.38 and 4.49 ± 0.27.
On the same counts, the results for GLQILGHTLRASMRELGLLIFFLF [KCNA4] are 2.95 ± 0.6 and 2.96 ± 0.25.
On the same counts, the results for GLRRLGLHRTEGELQKIVQAGDKD [SLC25A25] are 4.45 ± 0.12 and 4.82 ± 0.52.
Turning to GNSSGSDVTSLSSQLPDTPNSMVP [ISL2], the protein stability index by setting is: under setting [1], 5.13 ± 0.2; under setting [2], 4.9 ± 0.32.
On the same counts, the results for GRAQDDVSEWASKAKANGITMYAV [MATN2] are 2.56 ± 0.36 and 2.62 ± 0.39.
The matching figures for GRGGRDRFTAESYTVLGDTLIDGG [FSD1]: 4.06 ± 0.26 and 4.08 ± 0.52.
The matching figures for GRYRDARMNDLHYLNLDTWEWNEL [KLHDC2]: 2.86 ± 0.24 and 2.88 ± 0.25.
Take GSAAKLVCYFTNWAQYRQGEARFL [CHIT1]: the protein stability index under setting [1] was 2.1 ± 0.36 and the protein stability index under setting [2] turned out to be 2.23 ± 0.18.
The matching figures for GSAGRLLAVGTDLYGQRNSAPEQE [GFOD1]: 4.61 ± 0.44 and 4.79 ± 0.21.
On the same counts, the results for GSEVYRMLREPAEPVAAEPKQSGS [PDLIM4] are 5.12 ± 0.25 and 5.03 ± 0.22.
On the same counts, the results for GSPSRPLSRRQLCPLTPGPGKALG [C2CD2L] are 3.81 ± 0.35 and 4.11 ± 0.11.
With GSRHPTLVLPLVPELLSTHPFFDT [INTS4], the protein stability index is, setting by setting: under setting [1], 2.23 ± 0.28; under setting [2], 2.31 ± 0.078.
GSVPLPESTRELGELLGEARYYLV [KCTD13] displayed a protein stability index under setting [1] of 2.11 ± 0.36 and a protein stability index under setting [2] of 2.35 ± 0.32.
The matching figures for GTAPLNQETAEFFLSLDIPIGELY [ACSBG2]: 1.89 ± 0.26 and 2.32 ± 0.26.
The matching figures for GTLGSCSSSSECLEDSTMGSVADT [PLK2]: 5.36 ± 0.11 and 5.28 ± 0.15.
Consider GTTEAATQDGKEQPELPCAMAMGT [PXN], for which the protein stability index is 5.48 ± 0.13 under setting [1] and 5.45 ± 0.22 under setting [2].
